Laboratory results published in patent US20230119539A1, “TRACELESS LINKERS AND PROTEIN-CONJUGATES THEREOF” (Regeneron Pharmaceuticals, Inc., priority 2019, published 2023).
Like-named read-outs stand apart in the source and are kept apart here.

Experiments:
[1] = Solubility of quenched linker-payloads; conditions: Table 3c, linker-payloads quenched with taurine-PEG4-azide or CD-N3
[2] = biological target: T1, GR (Homo sapiens, UniProt P04150); assay: GR luciferase reporter assay in HEK293/GRLuc cells; type: cell-based
T1 construct: host or cells: HEK293 (HEK293/GRLuc; HEK293/GRLuc/MSR1 additionally transduced with human MSR1)
T1 sequence (P04150 524-758 limits assumed): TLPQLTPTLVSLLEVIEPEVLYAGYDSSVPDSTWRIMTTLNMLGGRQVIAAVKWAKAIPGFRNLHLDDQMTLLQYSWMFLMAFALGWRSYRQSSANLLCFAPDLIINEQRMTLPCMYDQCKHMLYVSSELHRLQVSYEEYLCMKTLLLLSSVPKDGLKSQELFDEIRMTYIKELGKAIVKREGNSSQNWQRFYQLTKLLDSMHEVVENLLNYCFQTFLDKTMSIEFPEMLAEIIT
Method: Activity of anti-MSR1 ncADCs were tested using an MSR1 ADC steroid responsive luciferase reporter assay. To generate the assay cell line, HEK293 cells were co-transfected with the pBind-GR (Promega, Cat #E158A) and pGL4.35 [Luc2P/9xGAL4UAS/Hygro] (Promega, Cat #E137A) vectors. The pBind-GR vector expresses a fusion protein consisting of the GR ligand binding and the yeast Gal4DNA-binding domain, which binds to the Gal4 upstream activation sequence (UAS) in the luciferase expression vector, that can induce luciferase expression following GR agonist binding. The cells were selected for at least 2 weeks in G418+hygromycin and the resulting cell line is referred to as HEK293/GRLuc. HEK293/GRLuc cells were then transduced with a human MSR1 lentiviral expression vector and 48 hours later cells were sorted for MSR1 positive cells. The resulting cell line is referred to as HEK293/GRLuc/MSR1.
Three-fold serial dilutions of ncADCs in assay buffer were added to the cells for 48 hours. The last well in the plate served as blank control containing only the assay media and was plotted as a continuation of the 3-fold serial dilution. Luciferase activity was determined using the One-Glo™ reagent (Promega, Cat #E6130). Relative light units (RLUs) were measured on an Envision luminometer (PerkinElmer) and EC50 values were determined using a four-parameter logistic equation over a 10-point dose response curve (GraphPad Prism). The signal to noise (S/N) was determined by taking the ratio of the highest RLU on the dose response curve to the RLU in the untreated wells.
To test the activity of GR agonist payloads disclosed herein, a cell-based GR responsive luciferase reporter assay was developed as described above.
Three-fold serial dilutions of free payloads were prepared in 100% DMSO, transferred to fresh assay media, and added to the cells for 48 hours. […] The last well in the plate served as blank control containing only the assay media and 0.2% DMSO (untreated well) and was plotted as a continuation of the 3-fold serial dilution. Luciferase activity was determined using the One-Glo™ reagent (Promega, Cat #E6130). Relative light units (RLUs) were measured on an Envision luminometer (PerkinElmer) and EC50 values were determined using a four-parameter logistic equation over a 10-point dose response curve (GraphPad Prism). The signal to noise (S/N) was determined by taking the ratio of the highest RLU on the dose response curve to the RLU in the untreated wells.

[3] = biological target: T2, human macrophage scavenger receptor 1 (MSR1) (human, UniProt P21757 1-451); assay: cell-based or functional assay
T2 sequence (looked up): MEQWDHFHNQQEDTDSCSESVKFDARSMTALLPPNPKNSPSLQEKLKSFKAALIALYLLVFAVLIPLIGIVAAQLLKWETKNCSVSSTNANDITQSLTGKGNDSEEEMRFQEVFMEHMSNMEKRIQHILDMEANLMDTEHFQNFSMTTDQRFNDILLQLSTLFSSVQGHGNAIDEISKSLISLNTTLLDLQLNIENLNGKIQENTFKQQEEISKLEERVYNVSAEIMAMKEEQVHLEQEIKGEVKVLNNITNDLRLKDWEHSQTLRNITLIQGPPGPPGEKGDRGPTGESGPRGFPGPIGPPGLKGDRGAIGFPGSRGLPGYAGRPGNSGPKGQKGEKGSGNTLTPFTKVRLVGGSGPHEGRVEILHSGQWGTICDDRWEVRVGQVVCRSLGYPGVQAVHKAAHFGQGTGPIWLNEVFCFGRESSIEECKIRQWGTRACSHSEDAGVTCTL

[4] = biological target: T2, human macrophage scavenger receptor 1 …; assay: cell-based or functional assay; remark: listed apart in the source
[5] = Table 8, ncADCs, highest RLU / RLU of untreated wells

Molecule	Solubility [1] [µg/mL]	EC50 ([2]; Table 8, ncADCs, 48 hours) [nM]	S/N [2, 5]	EC50 ([2]; Table 11, ADCs) [nM]	S/N ([2]; Table 11, ADCs)	EC50, GR luciferase reporter activity in HEK293/GRLuc/MSR1 cells [3] [nM]	S/N (highest RLU / RLU in untreated wells), HEK293/GRLuc/MSR1 cells [3]	EC50, GR luciferase reporter activity in HEK293/GRLuc/MSR1 cells [4] [nM]	S/N, HEK293/GRLuc/MSR1 cells [4]
CCCC1O[C@@H]2C[C@H]3[C@@H]4C[C@H](F)C5=CC(=O)C=C[C@]5(C)[C@@]4(F)[C@@H](O)C[C@]3(C)[C@]2(C(=O)COCNC(=O)CNC(=O)CNC(=O)OCc2ccc(NC(=O)[C@H](CCCNC(N)=O)NC(=O)[C@@H](NC(=O)CCOCCOCCOCCOCCNC(=O)CCC(=O)N3Cc4ccccc4-c4c(nnn4CCOCCOCCOCCOCCC(=O)NCCS(=O)(=O)O)-c4ccccc43)C(C)C)cc2)O1 (stereo partly shown) [Q1L1-PIII-4]	>1000								
H1H21234N-N297Q-L1-PII-1 (antibody, V domains shown, heavy-chain constant region (not part of this entry): N297Q (EU); linker-payload L1-PII-1 (DIBAC-suc-PEG4-vcPAB-PII-1, payload budesonide) clicked onto azido-PEG3-amine on glutamines; DAR 4) VH: QVQLQESGPGLVKPSETLSLTCTVTGGSISRNYWSWIRQPPGKGLEWIGYIYYSGSIDYNPSLKSRVTISVDTSKNQFSLKLSSMTAADTAVYYCARDRWNWKYGMDVWGQGTTVIVSS VL: EIVLTQSPGTLSLSPGERATLSCRASQTVRNNYLAWYHQKPGQAPRLLIYGASSRATGIPDRFSGSGSGTDFTLTISRLEPEDFTVYYCHQYGNSPWTFGQGTKMEIKR		> 100	5.4	> 100	4.5	0.609	128	0.84	222
H1H21234N-N297Q-L14-PII-1 (antibody, V domains shown, heavy-chain constant region (not part of this entry): N297Q (EU); linker-payload L14-PII-1 (DIBAC-GGFG-NHCH2-Bud) conjugated as in Example 5; four DAR ADC) VH: QVQLQESGPGLVKPSETLSLTCTVTGGSISRNYWSWIRQPPGKGLEWIGYIYYSGSIDYNPSLKSRVTISVDTSKNQFSLKLSSMTAADTAVYYCARDRWNWKYGMDVWGQGTTVIVSS VL: EIVLTQSPGTLSLSPGERATLSCRASQTVRNNYLAWYHQKPGQAPRLLIYGASSRATGIPDRFSGSGSGTDFTLTISRLEPEDFTVYYCHQYGNSPWTFGQGTKMEIKR				> 100	16.8			0.636	120
H1H21234N-N297Q-L4-PIII-1 (antibody, V domains shown, heavy-chain constant region (not part of this entry): N297Q (EU); linker-payload L4-PIII-1 (DIBAC-suc-GGF-PIII-1) clicked onto azido-PEG3-amine on glutamines; DAR 4) VH: QVQLQESGPGLVKPSETLSLTCTVTGGSISRNYWSWIRQPPGKGLEWIGYIYYSGSIDYNPSLKSRVTISVDTSKNQFSLKLSSMTAADTAVYYCARDRWNWKYGMDVWGQGTTVIVSS VL: EIVLTQSPGTLSLSPGERATLSCRASQTVRNNYLAWYHQKPGQAPRLLIYGASSRATGIPDRFSGSGSGTDFTLTISRLEPEDFTVYYCHQYGNSPWTFGQGTKMEIKR		51.4	25.5			0.117	148		
H1H21234N-N297Q-L2-PIII-1 (antibody, V domains shown, heavy-chain constant region (not part of this entry): N297Q (EU); linker-payload L2-PIII-1 (DIBAC-suc-PEG4-Glu-vcPAB-PIII-1) clicked onto azido-PEG3-amine on glutamines; DAR 4) VH: QVQLQESGPGLVKPSETLSLTCTVTGGSISRNYWSWIRQPPGKGLEWIGYIYYSGSIDYNPSLKSRVTISVDTSKNQFSLKLSSMTAADTAVYYCARDRWNWKYGMDVWGQGTTVIVSS VL: EIVLTQSPGTLSLSPGERATLSCRASQTVRNNYLAWYHQKPGQAPRLLIYGASSRATGIPDRFSGSGSGTDFTLTISRLEPEDFTVYYCHQYGNSPWTFGQGTKMEIKR		52.7	6.0			0.184	96.4		
H1H21234N-N297Q-L5-PIII-1 (antibody, V domains shown, heavy-chain constant region (not part of this entry): N297Q (EU); linker-payload L5-PIII-1 (DIBAC-suc-SGGG-PIII-1) clicked onto azido-PEG3-amine on glutamines; DAR 4) VH: QVQLQESGPGLVKPSETLSLTCTVTGGSISRNYWSWIRQPPGKGLEWIGYIYYSGSIDYNPSLKSRVTISVDTSKNQFSLKLSSMTAADTAVYYCARDRWNWKYGMDVWGQGTTVIVSS VL: EIVLTQSPGTLSLSPGERATLSCRASQTVRNNYLAWYHQKPGQAPRLLIYGASSRATGIPDRFSGSGSGTDFTLTISRLEPEDFTVYYCHQYGNSPWTFGQGTKMEIKR		41.7	13.2			0.138	125		
H1H21234N-N297Q-L13-PII-1 (antibody, V domains shown, heavy-chain constant region (not part of this entry): N297Q (EU); linker-payload L13-PII-1 (COT-GGGG-NHCH2-Bud) conjugated as in Example 5; four DAR ADC) VH: QVQLQESGPGLVKPSETLSLTCTVTGGSISRNYWSWIRQPPGKGLEWIGYIYYSGSIDYNPSLKSRVTISVDTSKNQFSLKLSSMTAADTAVYYCARDRWNWKYGMDVWGQGTTVIVSS VL: EIVLTQSPGTLSLSPGERATLSCRASQTVRNNYLAWYHQKPGQAPRLLIYGASSRATGIPDRFSGSGSGTDFTLTISRLEPEDFTVYYCHQYGNSPWTFGQGTKMEIKR				> 100	3.1			2.33	226
H1H21234N-N297Q-L8-PII-1 (antibody, V domains shown, heavy-chain constant region (not part of this entry): N297Q (EU); linker-payload L8-PII-1 (COT-PEG4-EvcPAB-G-NHCH2-Bud) conjugated as in Example 5; four DAR ADC) VH: QVQLQESGPGLVKPSETLSLTCTVTGGSISRNYWSWIRQPPGKGLEWIGYIYYSGSIDYNPSLKSRVTISVDTSKNQFSLKLSSMTAADTAVYYCARDRWNWKYGMDVWGQGTTVIVSS VL: EIVLTQSPGTLSLSPGERATLSCRASQTVRNNYLAWYHQKPGQAPRLLIYGASSRATGIPDRFSGSGSGTDFTLTISRLEPEDFTVYYCHQYGNSPWTFGQGTKMEIKR				> 100	1.4			0.899	280
H1H21234N-N297Q-L6-PII-9 (antibody, V domains shown, heavy-chain constant region (not part of this entry): N297Q (EU); linker-payload L6-PII-9 (DIBAC-suc-PEG4-PII-9, payload budesonide) conjugated as in Example 5; four DAR ADC) VH: QVQLQESGPGLVKPSETLSLTCTVTGGSISRNYWSWIRQPPGKGLEWIGYIYYSGSIDYNPSLKSRVTISVDTSKNQFSLKLSSMTAADTAVYYCARDRWNWKYGMDVWGQGTTVIVSS VL: EIVLTQSPGTLSLSPGERATLSCRASQTVRNNYLAWYHQKPGQAPRLLIYGASSRATGIPDRFSGSGSGTDFTLTISRLEPEDFTVYYCHQYGNSPWTFGQGTKMEIKR				> 100	15.8			3.96	150
